The values that follow come from publication PMC3477016, “The intrinsic GTPase activity of the Gtr1 protein from Saccharomyces cerevisiae” (BMC Biochemistry, 2012).

Substrate in the data set: Nc1nc2c(ncn2[C@@H]2O[C@H](COP(=O)(O)OP(=O)(O)OP(=O)(O)O)[C@@H](O)[C@H]2O)c(=O)[nH]1
Kind of data set: radioactive GTPase assay, thin-layer chromatography, Lineweaver-Burk. Format: biochemical, Saccharomyces cerevisiae. The note with it: pH 7.4, 37 °C, 5 mM MgCl2, 5 mM KCl, 25 mM HEPES, 100 mM sucrose, 60 min, labelled compound [α-32P]GTP 0.1-1.2 μM, no GAP, GEF or Gtr2.

B1: Gtr1 (Saccharomyces cerevisiae S288C) (protein)
chain: MSSNNRKKLLLMGRSGSGKSSMRSIIFSNYSAFDTRRLGATIDVEHSHLRFLGNMTLNLWDCGGQDVFMENYFTKQKDHIFQMVQVLIHVFDVESTEVLKDIEIFAKALKQLRKYSPDAKIFVLLHKMDLVQLDKREELFQIMMKNLSETSSEFGFPNLIGFPTSIWDESLYKAWSQIVCSLIPNMSNHQSNLKKFKEIMNALEIILFERTTFLVICSSNGENSNENHDSSDNNNVLLDPKRFEKISNIMKNFKQSCTKLKSGFKTLILNNNIYVSELSSNMVCFIVLKDMNIPQELVLENIKKAKEFFQ
notes: full-length, N-terminal His6 tag (pET28a+ named in acknowledgements), expressed in E. coli, Ni-NTA purified, 36 kDa, monomer (without Gtr2); printed PDB id is of the Gtr1-Gtr2 complex of others
Take B1: the Km (commonly the substrate concentration at which the rate is half of its maximum) worked out at 1.0 µM; the kcat (as a rule, the number of substrate molecules converted per active site and unit of time at saturation) was determined as 0.004 min⁻¹.
